Among the data in publication PMC10548220, “Development and evaluation of nanobody tracers for noninvasive nuclear imaging of the immune-checkpoint TIGIT” (Frontiers in Immunology, 2023) are koff, kon and Kd values, retold here.

Residue numbers refer to the chain shown, from its start. Names and notes keep the numbering of the source.

The labels stand for the following.
B1: anti-hTIGIT Nb 17010 (VHH)
VHH: QVQLQESGGGSVQTGGSLRLSCAASNGFSINAMGWYRQSPGKQRELVARITSGSSTNYTNYADSVKGRFTISRDNAKNTGYLEMNLLKPEDTAVYYCHADVLLGGLQGLIQRFWGQGTQVTVSS
notes: nanobody from an immunized llama; Cloned in pHen6 after PCR with primers A6E and PMCF; source: E. coli WK6, periplasmic extract, purified (Ni-NTA, SEC); not shown: His6, C-terminal, kept
B2: single-chain variable fragment derived from the monoclonal antibody Vibostolimab (scFv, V domains shown)
VH: EVQLVQSGAEVKKPGSSVKVSCKASGYTFSSYVMHWVRQAPGQGLEWIGYIDPYNDGAKYAQKFQGRVTLTSDKSTSTAYMELSSLRSEDTAVYYCARGGPYGWYFDVWGQGTTVTVSS
VL: DIQMTQSPSSLSASVGDRVTITCRASEHIYSYLSWYQQKPGKVPKLLIYNAKTLAEGVPSRFSGSGSGTDFTLTISSLQPEDVATYYCQHHFGSPLTFGQGTRLEIK
notes: variable domain of the heavy chain (VH) of Vibostolimab (Merck); (G4S)3 linker; variable domain of the light chain (VL) of Vibostolimab (Merck); Cloned in pHen6; also called ScFv Vibo; Vibo scFv; source: E. coli WK6, periplasmic extract, purified (Ni-NTA, SEC), produced in the same way as the Nbs; not shown: His6, C-terminal, kept
B3: anti-hTIGIT Nb 16920 (VHH)
VHH: QVQLQESGGGFVQAGGSLRLSCAASSISSIYAMDWYRQAPGKQREFVAGITSGGTTNYGSTVKGRFTISRDESKNTVDLQMNSLKPEDSAVYVCRATISWKIYSGQGTQVTVSS
notes: as for B1
B4: anti-hTIGIT Nb 17018 (VHH)
VHH: QVQLQESGGGLVQAGGSLRLSCTASSIFSINAMGWYRQTPGKQRELVARITNGSSTNYADSVKGRFTISRDNAKNTVYLQMNSLKPEDTAVYYCHTDLLLEVGAMRYWGQGTQVTVSS
notes: as for B1
B5: anti-hTIGIT Nb 17037 (VHH)
VHH: QVQLQESGGGLVQAGGSLRLSCAASSTLSIDDMGWYRQAPEKHREFVATISRGGSTNYAASVKGRFTISRDNAKNTVFLQMNNLKSEDTAVYYCRATSTWRYYWAQGTQVTVSS
notes: as for B1
B6: anti-hTIGIT Nb 16925 (VHH)
VHH: QVQLQESGGGLVQAGGSLRLSCAASSISSINAMGWYRQPPGKQRELVARITFGHSTNYADSVKGRFTISRDNAKSTVYLQMNSLKPEDTAVYYCNADLLLNTQAIRAWGQGTQVTVSS
notes: as for B1
B7: anti-mTIGIT Nb 16979 (VHH)
VHH: QVQLQESGGGLVQAGESLRLSCAASIIVSDNIMAWYRQSPGKQREIVALISSTGTINYVDSVKGRFTISRDNAKNTLNLQMTKLKPEDTAVYYCSGRTLRVYWGQGTQVTVSS
notes: as for B1
B8: anti-mTIGIT Nb 16972 (VHH)
VHH: QVQLQESGGGLVQTGESLRLSCAASSVSSITGMDWYRQAPGKQREWVATITRNNIAMYGASVKGRFTVSRDNAKNTWYLQMNSLKPEDTAVYYCTYRGNWGQGTQVTVSS
notes: as for B1
B9: anti-mTIGIT Nb 16988 (VHH)
VHH: B8 VHH with T14A, E16G, N72D, R97H
notes: as for B1
B10: anti-mTIGIT Nb 16966 (VHH)
VHH: B8 VHH with L11S, Q13R, T14P, V27D, A56T, M57I, A73V
notes: as for B1
B11: anti-hTIGIT nanobody 17010 (VHH)
VHH: B1 VHH
notes: Cloned into pHen6 after PCR with primers A6E and PMCF; also called Nb 17010; source: E. coli WK6, periplasmic extract, purified (Ni-NTA, SEC); not shown: His6, C-terminal, kept
B12: single-chain variable fragment derived from the monoclonal antibody Vibostolimab (scFv, V domains shown)
VH: B2 VH
VL: B2 VL
notes: VH of the mAb Vibostolimab (Merck); (G4S)3 linker, written out from the printed formula; VL of the mAb Vibostolimab (Merck); Cloned into pHen6 by Gibson assembly; also called scFv Vibo; Vibo scFv; source: E. coli WK6, periplasmic extract, purified (Ni-NTA, SEC), produced in the same way as the Nbs; not shown: His6, C-terminal, kept
B13: anti-hTIGIT nanobody 16920 (VHH)
VHH: B3 VHH
notes: Cloned into pHen6 after PCR with primers A6E and PMCF; source: E. coli WK6, periplasmic extract, purified (Ni-NTA, SEC); not shown: His6, C-terminal, kept
B14: anti-hTIGIT nanobody 17018 (VHH)
VHH: B4 VHH
notes: Cloned into pHen6 after PCR with primers A6E and PMCF; also called Nb 17018; source: E. coli WK6, periplasmic extract, purified (Ni-NTA, SEC); not shown: His6, C-terminal, kept
B15: anti-hTIGIT nanobody 17037 (VHH)
VHH: B5 VHH
notes: Cloned into pHen6 after PCR with primers A6E and PMCF; also called Nb 17037; source: E. coli WK6, periplasmic extract, purified (Ni-NTA, SEC); not shown: His6, C-terminal, kept
B16: anti-hTIGIT nanobody 16925 (VHH)
VHH: B6 VHH
notes: Cloned into pHen6 after PCR with primers A6E and PMCF; labelled with 99mTc on the His6 tag for the in vivo work; also called lead hTIGIT Nb; source: E. coli WK6, periplasmic extract, purified (Ni-NTA, SEC); not shown: His6, C-terminal, kept
B17: anti-mTIGIT nanobody 16966 (VHH)
VHH: B8 VHH with L11S, Q13R, T14P, V27D, A56T, M57I, A73V
notes: Cloned into pHen6 after PCR with primers A6E and PMCF; labelled with 99mTc on the His6 tag for the in vivo work; also called Nb 16966; source: E. coli WK6, periplasmic extract, purified (Ni-NTA, SEC); not shown: His6, C-terminal, kept
B18: anti-mTIGIT nanobody 16988 (VHH)
VHH: B8 VHH with T14A, E16G, N72D, R97H
notes: Cloned into pHen6 after PCR with primers A6E and PMCF; labelled with 99mTc on the His6 tag for the in vivo work; also called lead anti-mTIGIT Nb; source: E. coli WK6, periplasmic extract, purified (Ni-NTA, SEC); not shown: His6, C-terminal, kept
B19: anti-mTIGIT nanobody 16972 (VHH)
VHH: B8 VHH
notes: Cloned into pHen6 after PCR with primers A6E and PMCF; also called Nb 16972; source: E. coli WK6, periplasmic extract, purified (Ni-NTA, SEC); not shown: His6, C-terminal, kept

T1 sequence (Q495A1 22-141): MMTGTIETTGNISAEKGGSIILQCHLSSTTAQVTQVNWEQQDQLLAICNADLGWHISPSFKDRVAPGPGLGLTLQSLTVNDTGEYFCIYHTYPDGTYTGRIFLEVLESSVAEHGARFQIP
Chain of CD155 (Homo sapiens) (P15151 21-343): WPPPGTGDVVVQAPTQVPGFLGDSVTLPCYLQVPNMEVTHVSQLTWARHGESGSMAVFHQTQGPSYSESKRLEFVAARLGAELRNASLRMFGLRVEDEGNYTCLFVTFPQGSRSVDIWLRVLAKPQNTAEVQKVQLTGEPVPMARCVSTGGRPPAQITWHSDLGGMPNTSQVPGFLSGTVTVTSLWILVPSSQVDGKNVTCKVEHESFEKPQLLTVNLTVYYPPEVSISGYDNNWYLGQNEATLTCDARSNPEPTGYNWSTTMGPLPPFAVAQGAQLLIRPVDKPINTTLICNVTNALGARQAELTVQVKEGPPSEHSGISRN
Chain of recombinant mouse TIGIT-Fc carrier-free protein (mouse) (P86176 29-148): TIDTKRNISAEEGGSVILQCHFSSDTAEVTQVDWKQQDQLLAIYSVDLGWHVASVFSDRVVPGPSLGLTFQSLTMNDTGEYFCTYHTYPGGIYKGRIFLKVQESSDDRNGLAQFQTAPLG

One test addresses T1, recombinant human TIGIT-Fc carrier-free protein (Homo sapiens (Human)., UniProt Q495A1-1).
T1 construct: T cell Ig and ITIM domain receptor (TIGIT), human; also called hTIGIT-Fc; human TIGIT recombinant protein; source: bought: Biolegend (Cat. No. 768608)
The test is described as follows: SPR; Biacore T200; m/hTIGIT-Fc (10 µg/mL in 10 mM Na-acetate pH 4.0) immobilised on a CM5 chip; Nbs or scFv injected in two-fold dilutions from 200 nM, 10 µl/min, 25°C; HBS pH 7.4 (0.01 M HEPES, 0.15 M NaCl, 3 mM EDTA, 0.005% Tween 20); fit 1:1 binding with drift and RI2. The conditions noted are these: both partners purified. In general terms: In SPR one partner is held on a chip, and binding of the other changes the refractive index at the surface.
One may read the koff as the first-order rate constant of dissociation. Broadly, the kon is the second-order rate constant of association. For B1, the koff turned out to be 0.000803 s⁻¹ and the kon was found to be 2.33e+06 M⁻¹ s⁻¹.
For B2, in that order: 0.000827 s⁻¹ and 830000 M⁻¹ s⁻¹.
The corresponding values for B3 are 0.00426 s⁻¹ and 5.66e+06 M⁻¹ s⁻¹.
For B4, in that order: 0.000496 s⁻¹ and 1.06e+06 M⁻¹ s⁻¹.
In the case of B5, the dissociation rate constant (koff) is 0.00157 s⁻¹ and the association rate constant (kon) was 1.36e+07 M⁻¹ s⁻¹.
For B6, the off-rate (koff) turned out to be 0.000911 s⁻¹ and the kon turned out to be 462000 M⁻¹ s⁻¹.

Another test deals with T2, recombinant mouse TIGIT-Fc carrier-free protein (Mus musculus, UniProt A0A0B4J1G6).
T2 construct: T cell Ig and ITIM domain receptor (TIGIT), mouse; also called mTIGIT-Fc; mouse TIGIT recombinant protein; source: bought: Biolegend (Cat. No. 771808)
The test is described as above. The conditions noted are these: both partners purified.
T2 sequence (P86176 29-148): as above
Turning to B7, the koff is 0.114 s⁻¹ and the kon was found to be 134000 M⁻¹ s⁻¹.
The corresponding values for B8 are 0.00113 s⁻¹ and 7.46e+06 M⁻¹ s⁻¹.
For B9, in that order: 0.000738 s⁻¹ and 7.06e+06 M⁻¹ s⁻¹.
In the case of B10, the koff turned out to be 0.00257 s⁻¹ and the on-rate (kon) amounted to 1.64e+07 M⁻¹ s⁻¹.

For the next test, the target named is T3, recombinant human TIGIT-Fc carrier-free protein (Homo sapiens (Human)., UniProt Q495A1).
T3 construct: T cell Ig and ITIM domain receptor (TIGIT), human; also called hTIGIT-Fc; recombinant hTIGIT; source: bought: Biolegend
T3 sequence (Q495A1 22-141): as the sequence (Q495A1 22-141) above
The test is described as follows: SPR; Biacore T200; recombinant m/hTIGIT-Fc immobilised on a CM5 chip; Nbs injected, eight two-fold dilutions from 200 nM, 10 µl/min, 25°C; HBS pH 7.4 (0.01 M HEPES, 0.15 M NaCl, 3 mM EDTA, 0.005% Tween 20); fit 1:1 binding with drift and RI2. Particulars: both partners purified.
For orientation: Kd means a measure of binding affinity in units of concentration. Consider B11, for which the Kd came out at 0.345 ± 0.001 nM.
In the case of B12, the Kd amounted to 0.996 ± 0.004 nM.
As to B13, the equilibrium dissociation constant (Kd) was 0.753 ± 0.002 nM.
As to B14, the dissociation constant (Kd) turned out to be 0.47 ± 0.002 nM.
On to B15, for which the dissociation constant (Kd) is 0.116 ± 0.001 nM.
Take B16: the Kd stood at 1.974 ± 0.004 nM.

The target of a further test is T4, recombinant mouse TIGIT-Fc carrier-free protein (Mus musculus, UniProt A0A0B4J1G6).
T4 construct: T cell Ig and ITIM domain receptor (TIGIT), mouse; also called mTIGIT-Fc; recombinant mTIGIT; source: bought: Biolegend
The test is described as above. The conditions noted are these: both partners purified.
T4 sequence (P86176 29-148): as the sequence (P86176 29-148) above
With B17, the Kd is 0.157 ± 0.001 nM.
For the molecule B18, the Kd came out at 0.104 ± 0.001 nM.
Same read-out and setting: with B19 the figure was 0.152 ± 0.001 nM.

A further test addresses CD155 (Homo sapiens) (UniProt P15151).
Experiment: not given
Particulars: cited from earlier work.
Turning to TIGIT (from UniProt Q495A1), the Kd is 2 nM.

Another test concerns the target recombinant mouse TIGIT-Fc carrier-free protein (mouse) (UniProt P86176). The test is described as follows: SPR; Biacore T200; recombinant m/hTIGIT-Fc immobilised on a CM5 chip; Nbs injected, eight two-fold dilutions from 200 nM, 10 µl/min, 25°C; HBS pH 7.4 (0.01 M HEPES, 0.15 M NaCl, 3 mM EDTA, 0.005% Tween 20); fit 1:1 binding with drift and RI2.
Details: not given
Consider B7, for which the equilibrium dissociation constant (Kd) is 846 nM.
